This assay concerns the target T1, human serum albumin (Homo sapiens, UniProt P02768).
T1 construct: purchased Aventis, Bridgewater, N.J. Albuminar
Briefly: Serum albumin binding by surface plasmon resonance (BIACORE 3000). The following applies: SPR, immobilized serum albumin, 25° C., Req divided by molecular weight; for reduction of human serum albumin binding of the Fc chimeric protein compared to the unmodified molecule: unmodified molecule bound this many times as much. The method, then:
Analysis of macromolecular interactions was performed using surface plasmon resonance as previously described (Frostell-Karlsson et al. 2000, J. Med. Chem. 43:1986). A BIACORE 3000 instrument (Biacore AB, Piscataway, N.J.) was used and all binding interactions were performed at 25° C. A carboxymethyl-modified dextran (CM5) sensor chip (Biacore AB, Piscataway, N.J.) was used for the analysis. Serum albumin (Albuminar, Aventis, Bridgewater, N.J.) was diluted to 100 μg/mL in 10 mM sodium acetate (pH 4.5) and immobilized to one flowcell of the sensor chip, using amine coupling as described (Frostell-Karlsson et al. 2000, J. Med. Chem. 43:1986). Final immobilization level was approximately 8500 Resonance Units (RU). A “mock-immobilized” surface using a separate flowcell was created using the same procedure in the absence of serum albumin and served as a reference for the binding studies.
Proteins or peptides (analyte) were diluted in HBS-N buffer (10 mM HEPES, pH 7.4; 150 mM NaCl) and injected over the serum albumin and reference surfaces for 3 minutes at a rate of 20 μL/min. After a 35 second dissociation phase, the surface was regenerated by a 30 second pulse of 10 mM glycine (pH 2.0) at a flow rate of 60 μL/min.
The sensorgrams (RU versus time) generated for the mock-coated flowcell were automatically subtracted from the serum albumin-coated sensorgrams. Response at equilibrium (Req) was measured 30 seconds before the end of the injection phase and divided by the molecular weight of the analyte, total response as is in part, a function of molecular weight. (Frostell-Karlsson et al. 2000, J. Med. Chem. 43:1986). Samples tested included T20 linked to Fc (i.e. T20-Fc produced in CHO cells and Fc-T20 produced in E. coli), a VLA4 antagonist linked to Fc, a GnRH peptide linked to Fc, PspA, a bacterial peptide fragment of S. pneumonia surface protein A, peptide YY a peptide involved in regulation of nutrient uptake and an Fc fragment of an immunoglobulin beginning with Cys 226 served as negative controls.
On the technique in general: Surface plasmon resonance follows binding to a sensor surface in real time, without labels.

Regarding “Fc-T20: T20 linked to Fc, produced in E. coli”, the “reduction of human serum albumin binding of the Fc chimeric protein compared to the unmodified molecule” value is “more than three”.
The same measure, in the same setting: as for “T20-Fc: T20 linked to Fc, produced in CHO cells”, the entry is “more than three”.
Take “T20: HIV fusion inhibitor, a small peptide, fragment of gp41 (SEQ ID NO: 1) [reference compound]”: the “human serum albumin binding of the unmodified molecule compared to the same molecule linked to Fc” value (ratio unmodified molecule / Fc chimeric protein) is “more than three”.
